Test results from patent US20200140826A1, “Maintenance and Expansion of Pancreatic Progenitor Cells” (AGENCY FOR SCIENCE, TECHNOLOGY AND RESEARCH, priority 2017, published 2020).

Test system: cPP cells
Experiment: Omission of individual components from complete cPP culture medium on 3T3-J2 feeders (phase contrast, qRT-PCR)
Type: cell-based, human
Protocol: Gentle cell dissociation reagent (STEMCELL Technologies, 07174) was used to passage cPP cells as aggregates that were then seeded at a 1:6 split ratio onto a layer of 3T3-J2 feeders (0.5×10^6 to 1×10^6 cells/cm^2) in medium composed of advanced DMEM/F12 (Thermo Fisher Scientific, 21634010), 2 mM L-glutamine (Thermo Fisher Scientific, 25030), 100 U/mL penicillin/streptomycin (Thermo Fisher Scientific, 15140122), 1× N2 supplement (Thermo Fisher Scientific, 17502-048), 1× B27 supplement (Thermo Fisher Scientific, 17504-044), 30 nM dexamethasone (STEMCELL Technologies, 72092), 50 ng/mL EGF (R&D Systems, 236-EG-200), 50 ng/mL FGF10 (Source Bioscience, ABC144), 3 μM RA (Sigma, R2625), 10 μM SB431542 (Calbiochem, 616464), and 1 μM DAPT (Sigma, D5942). If plating single cPP cells, complete medium was supplemented with 10 μM Y27632 for the first 48 hr (Sigma, Y0503). Medium was completely replenished every 2-3 days.
RNA was isolated from samples using an RNeasy mini kit (Qiagen, cat # 74104) and reverse transcribed to generate cDNA using a high-capacity reverse transcription kit and random hexamer primers (Applied Biosystems, 4368814,1 μg RNA per 20 μL reaction). Quantitative RT-PCR was carried out using SYBR Select Mastermix (Applied Biosystems, 4472908). Data were analyzed using the ΔΔCT method, and normalized to expression of the housekeeping gene TBP in each sample. […]

B1: FGF10: fibroblast growth factor 10, growth factor in the cPP culture medium (50 ng/mL) (protein, UniProt O15520 38-208, looked up)
Fibroblast growth factor 10: QALGQDMVSPEATNSSSSSFSSPSSAGRHVRSYNHLQGDVRWRKLFSFTKYFLKIEKNGKVSGTKKENCPYSILEITSVEIGVVAVKAINSNYYLAMNKKGKLYGSKEFNNDCKLKERIEENGYNTYASFNWQHNGRQMYVALNGKGAPRRGQKTRRKNTSAHFLPMVVHS
Component individually omitted from complete medium, cPP cells cultured 6 days on 3T3-J2 feeders
  Effect of removing the component on cPP expansion, colony size and morphology: did not significantly affect colony size or morphology in the short term
Component removed from the culture media over multiple passages
  Effect of removing the component on viability: noticeable loss of viability
